These results are taken from the Immune Epitope Database (IEDB).

A value given as a limit tells only on which side of the number the result lay.

Usually Kd stands for the concentration at which binding is half-saturated.

For the assay, the target named is HLA-A*02:01. The experiment in a line: IEDB peptide-MHC binding, purified MHC/competitive/radioactivity; filed as Kd, often an IC50 or EC50 that approximates it; ≥ and ≤ were set here for values at or beyond the usual limits of such assays.
The mark [1] stands for this setting: source organism: Hepatitis B virus subtype ayw.

On to DLFGIWSKV, for which, where the note is “source organism: Homo sapiens”, the Kd is at least 25 µM.

With PLSYQHFRRL, the Kd under setting [1] is at least 50 µM. As for SLQLVFGIEL, the Kd (source organism: Homo sapiens) worked out at 0.102 µM.

For DLESEFQAAL, for the setting “source organism: Homo sapiens”, the Kd is at least 50 µM. For the sequence RLCVQSTHV, under “source organism: Human papillomavirus 16”, the Kd is 16.7 µM. In the case of HLEGKVILV, the Kd (source organism: HIV-1 M:B_MN) stood at 8.33 µM. FLCILLLCLI: under “source organism: Hepatitis B virus adw/Indonesia/PIDW420”, the Kd came out at 2.38 µM. Turning to PLERFAELV, the Kd (source organism: Homo sapiens) is at least 50 µM. On to KLPGLLSRDL, for which the Kd (source organism: Homo sapiens) was at least 50 µM. With ELRHYSDSV, the Kd (source organism: human papillomavirus 18) was at least 50 µM. CLTFGRETV: the Kd under setting [1] was at least 50 µM. On to ELHPDKWTV, for which, under “source organism: HIV-1 M:B_MN”, the Kd is at least 50 µM. For the sequence DLVVSYVNV, for the setting “source organism: Hepatitis B virus”, the Kd was at least 50 µM. For NMGLKFRQLL, the Kd under setting [1] is at least 50 µM. For the sequence PLTSIISAV, the Kd (source organism: Homo sapiens) amounted to 3.33 µM. Consider ALSRKVAELV, for which the Kd (source organism: Homo sapiens) was at least 50 µM. For RMRGTFSAPL, the Kd under setting [1] is 0.046 µM.

On to GLRDLAVAV, for which the dissociation constant (Kd) (source organism: Hepatitis C virus (isolate Taiwan)) came to 1.47 µM. For LLYQTFGRKL, under setting [1], the Kd is at least 50 µM. Still for that read-out and setting: to HLSLRGLPV belongs 12.5 µM; to ILCWGELMTL, 0.026 µM; to NMGLKFRQL, at least 50 µM.
